Patent US20040176301A1 (CYCLACEL, published 2004)
Where two headings read alike, the source gives them in different places. Numbered stars: 1 amine (or outer) side, 2 acyl side, 3 side chain; on linkers, the order of the positions; unused ones are H or OH. Square brackets hold non-standard residues; d marks the D form. Dhp = dehydrophenylalanine, Z isomer, O=C(/C(=C/c1ccccc1)N[*:1])[*:2]; 1Nal = N[C@@H](Cc1cccc2ccccc12)C(=O)O; Cha = N[C@@H](CC1CCCCC1)C(=O)O; Phe(ol) = N[C@H](CO)Cc1ccccc1; dPsa = D-O-acetylphenylserine; Phg = N[C@H](C(=O)O)c1ccccc1; Tle = CC(C)(C)[C@H](N)C(=O)O; Psa = O-acetylphenylserine; Nle = CCCC[C@H](N)C(=O)O; Nva = CCC[C@H](N)C(=O)O; dPse = D-phenylserine

Columns and labels:
Experiment in all cases: cell-based or functional assay
CDK2/cyclin A [1] = target: T1, CDK2/cyclin A (UniProt P24941 1-298; P20248 1-432)
CDK2/cyclin A [2] = target: T1, CDK2/cyclin A; remark: listed apart in the source
CDK2/cyclin A [3] = target: T1, CDK2/cyclin A; remark: listed apart in the source
CDK2/cyclin A [4] = target: T1, CDK2/cyclin A; remark: listed apart in the source

Relative activity, Kinase Inhibition (CDK2/cyclin A kinase assay, pRb substrate, [ATP] = 100 µM) (CDK2/cyclin A [1]) | Relative activity, Kinase Inhibition (CDK2/cyclin A kinase assay, pRb substrate, [ATP] = 100 µM) (CDK2/cyclin A [3]) | Binder | further results
0.5 relative to H-His-Ala-Lys-Arg-Arg-Leu-Ile-Phe-NH2 (=1) | – | H-HFKRRLIF-NH2 [H-His-Phe-Lys-Arg-Arg-Leu-Ile-Phe-NH2] | –
< 0.1 relative to H-His-Ala-Lys-Arg-Arg-Leu-Ile-Phe-NH2 (=1) | – | H-H[Phg]KRRLIF-NH2 (also: Phg racemic, mixture of diastereomers) [H-His-Phg-Lys-Arg-Arg-Leu-Ile-Phe-NH2] | –
– | < 0.1 relative to H-His-Ala-Lys-Arg-Arg-Leu-Ile-Phe-NH2 (=1) | H-HSKRRLI[dPse]-OH [H-His-Ser-Lys-Arg-Arg-Leu-Ile-D-Pse-OH] | –
– | < 0.1 relative to H-His-Ala-Lys-Arg-Arg-Leu-Ile-Phe-NH2 (=1) | H-HSKRRLI[dPsa]-OH [H-His-Ser-Lys-Arg-Arg-Leu-Ile-D-Psa-OH] | –
– | < 0.1 relative to H-His-Ala-Lys-Arg-Arg-Leu-Ile-Phe-NH2 (=1) | H-HSKRRLI[Psa]-OH [H-His-Ser-Lys-Arg-Arg-Leu-Ile-L-Psa-OH] | –

Continued, binder first:

Binder | Relative activity, Kinase Inhibition (CDK2/cyclin A kinase assay, pRb substrate, [ATP] = 100 µM) (CDK2/cyclin A [1]) | Relative activity, Kinase Inhibition (CDK2/cyclin A kinase assay, pRb substrate, [ATP] = 100 µM) (CDK2/cyclin A [3]) | further results
H-HAKRR[Nle]IF-NH2 (SMILES CCCC[C@H](NC(=O)[C@H](CCCNC(=N)N)NC(=O)[C@H](CCCNC(=N)N)NC(=O)[C@H](CCCCN)NC(=O)[C@H](C)NC(=O)[C@@H](N)Cc1c[nH]cn1)C(=O)N[C@H](C(=O)N[C@@H](Cc1ccccc1)C(N)=O)[C@@H](C)CC) [H-His-Ala-Lys-Arg-Arg-Nle-Ile-Phe-NH2] | – | – | Relative activity, Kinase Inhibition (CDK2/cyclin A kinase assay, pRb substrate, [ATP] = 100 µM) (CDK2/cyclin A [2]): < 0.1 relative to H-His-Ala-Lys-Arg-Arg-Leu-Ile-Phe-NH2 (=1)
H-HAKRRLI[dPsa]-OH [H-His-Ala-Lys-Arg-Arg-Leu-Ile-D-Psa-OH] | – | < 0.1 relative to H-His-Ala-Lys-Arg-Arg-Leu-Ile-Phe-NH2 (=1) | –
H-H[Tle]KRRLIF-NH2 (SMILES CC[C@H](C)[C@H](NC(=O)[C@H](CC(C)C)NC(=O)[C@H](CCCNC(=N)N)NC(=O)[C@H](CCCNC(=N)N)NC(=O)[C@H](CCCCN)NC(=O)[C@@H](NC(=O)[C@@H](N)Cc1c[nH]cn1)C(C)(C)C)C(=O)N[C@@H](Cc1ccccc1)C(N)=O) [H-His-Bug-Lys-Arg-Arg-Leu-Ile-Phe-NH2] | 0.2 relative to H-His-Ala-Lys-Arg-Arg-Leu-Ile-Phe-NH2 (=1) | – | –
H-HAKRRLI[Phe(ol)] [H-His-Ala-Lys-Arg-Arg-Leu-Ile-Pheol] | – | 0.6 relative to H-His-Ala-Lys-Arg-Arg-Leu-Ile-Phe-NH2 (=1) | –
H-HAKRRL[Cha]F-NH2 (SMILES CC(C)C[C@H](NC(=O)[C@H](CCCNC(=N)N)NC(=O)[C@H](CCCNC(=N)N)NC(=O)[C@H](CCCCN)NC(=O)[C@H](C)NC(=O)[C@@H](N)Cc1c[nH]cn1)C(=O)N[C@@H](CC1CCCCC1)C(=O)N[C@@H](Cc1ccccc1)C(N)=O) [H-His-Ala-Lys-Arg-Arg-Leu-Cha-Phe-NH2] | – | – | Relative activity, Kinase Inhibition (CDK2/cyclin A kinase assay, pRb substrate, [ATP] = 100 µM) (CDK2/cyclin A [4]): 0.3 relative to H-His-Ala-Lys-Arg-Arg-Leu-Ile-Phe-NH2 (=1)
H-H[Nva]KRRLIF-NH2 (SMILES CCC[C@H](NC(=O)[C@@H](N)Cc1c[nH]cn1)C(=O)N[C@@H](CCCCN)C(=O)N[C@@H](CCCNC(=N)N)C(=O)N[C@@H](CCCNC(=N)N)C(=O)N[C@@H](CC(C)C)C(=O)N[C@H](C(=O)N[C@@H](Cc1ccccc1)C(N)=O)[C@@H](C)CC) [H-His-Nva-Lys-Arg-Arg-Leu-Ile-Phe-NH2] | < 0.1 relative to H-His-Ala-Lys-Arg-Arg-Leu-Ile-Phe-NH2 (=1) | – | –
H-HAKRRL[1Nal]F-NH2 (SMILES CC(C)C[C@H](NC(=O)[C@H](CCCNC(=N)N)NC(=O)[C@H](CCCNC(=N)N)NC(=O)[C@H](CCCCN)NC(=O)[C@H](C)NC(=O)[C@@H](N)Cc1c[nH]cn1)C(=O)N[C@@H](Cc1cccc2ccccc12)C(=O)N[C@@H](Cc1ccccc1)C(N)=O) [H-His-Ala-Lys-Arg-Arg-Leu-1Nap-Phe-NH2] | – | – | Relative activity, Kinase Inhibition (CDK2/cyclin A kinase assay, pRb substrate, [ATP] = 100 µM) (CDK2/cyclin A [4]): 0.5 relative to H-His-Ala-Lys-Arg-Arg-Leu-Ile-Phe-NH2 (=1)
H-HIKRRLIF-NH2 [H-His-Ile-Lys-Arg-Arg-Leu-Ile-Phe-NH2] | 0.5 relative to H-His-Ala-Lys-Arg-Arg-Leu-Ile-Phe-NH2 (=1) | – | –
H-HAKRRFIF-NH2 [H-His-Ala-Lys-Arg-Arg-Phe-Ile-Phe-NH2] | – | – | Relative activity, Kinase Inhibition (CDK2/cyclin A kinase assay, pRb substrate, [ATP] = 100 µM) (CDK2/cyclin A [2]): < 0.1 relative to H-His-Ala-Lys-Arg-Arg-Leu-Ile-Phe-NH2 (=1)
H-HAKRRLI[Dhp]-OH (SMILES CC[C@H](C)[C@H](NC(=O)[C@H](CC(C)C)NC(=O)[C@H](CCCNC(=N)N)NC(=O)[C@H](CCCNC(=N)N)NC(=O)[C@H](CCCCN)NC(=O)[C@H](C)NC(=O)[C@@H](N)Cc1c[nH]cn1)C(=O)N/C(=C\c1ccccc1)C(=O)O) [H-His-Ala-Lys-Arg-Arg-Leu-Ile-Dhp-OH] | – | 3.3 relative to H-His-Ala-Lys-Arg-Arg-Leu-Ile-Phe-NH2 (=1) | –
H-HGKRRLIF-NH2 [H-His-Gly-Lys-Arg-Arg-Leu-Ile-Phe-NH2] | 0.1 relative to H-His-Ala-Lys-Arg-Arg-Leu-Ile-Phe-NH2 (=1) | – | –
